Laboratory results published in the DeepSol protein solubility set.

experiment: soluble on expression in E. coli; label from the status in PepcDB or PDB records

Row | Sequence | soluble on expression in E. coli
1 | EVQLVESGGGLVQPGGSLRLSCAASGFTFSRYTMSWVRQAPGKGLEWVATISGGGHTYYLDSVKGRFTISRDNSKNTLYLQMNSLRAEDTAVYYCTRGFGDGGYFDVWGQGTLVTVSSAKTTPPSVYPLAPGSAAQTNSMVTLGCLVKGYFPEPVTVTWNSGSLSSGVHTFPAVLQSDLYTLSSSVTVPSSTWPSETVTCNVAHPASSTKVDKKIVPRDCHHHHHH | soluble
2 | MHKKADQPFMKEKRGSKLTVRAMPIQSKNLQISGICDVVEFVQDSEGIELSGVSGSYKAFPVEYKRGKPKKGDEDIVQLVAQAMCLEEMLVCRIDKGYLFYNEIKHRVEVPITDALRDKVVQMAKEMHHYYENRHTPKVKTGPFCNNCSLQSICLPKLMNKRSVKRYIEGRLSELEHHHHHH | not soluble
3 | MHIDNVVFMKKVLDASAFINGYVPEGRENYTVRSVTEEIRDFRSMMILEDALREGRLKITEPDPESMKVVEDAISESGDIMRLSPTDMEVIGLAVSLRGKDDVTVITDDYTIQNTLKILGIGFRSVLTSGIRDTYSWRRVCTGCRRVYPLDYEFEECEICGSRIVRKRHRNLEHHHHHH | soluble
4 | MSESIESYGIRLLNVYRETICDGPGLHYSIYLAGCRHACPGCHNPSSWDPEAGVLMTDSILGNIIREINANPLLDGITLSGGDPFYNPAGLTCLLQRLRASCTLPIWCYTGYTLEQLETDPMLSAPLALIDVLVDGPFVRELFDPTLLWRGSSNQCIIRLHENLEHHHHHH | not soluble
5 | MGELWGNGGGCYSPVPPVMIPFMAYYEKRGDAWRAQIRRKGYPTLSATFDTKAEAQRWAAELEGDMSRARFVDVREAEATSLATALERYESEVTESKKGAKQERVRIKKWMESKFAGKSLASLRSSDMASYRDAEIKAGRSTATVRLDLAVISHLYTVATKDWGIEGLTNPCRALRMPKGSKQRERRPTADELKSLYKAAGEISPELPVIIELAVETAMRRSELVTLRKDQIQGKVAFLEDTKNGERRSVPLSSRARELIEGVPAPIKGGPLFRLKADTVSNYFPLACEKANIQGLRLHDLRHEATSRLFERGFTMMEVASITGHKTLAMLKRYTHLSPQDLAEKLG | not soluble
6 | MGSDKIHHHHHHMGVTGNNYTKIFHRMYWDGTPTPTQLAQELSKHGLAITGISLWQLYNGTLQFPIYVATERQLKSTQWVTFHRRKQLRCCPAGVFSVEYPVLAITNLSDAQAIETLEGAYAKAQGAKFAAEHARQYVPQRNRELLRRAVVGVDSPPEKLLITALREQGIDCHANVLVGDYRWDIQLDRHRVLIEVDGFEFHRFKPENQDAFVRDRWKTNDATLRGYLCLHYAARSVYRHTAVIVDQVQAAIRVAPARGYPFDASAMWHRGCWKWS | not soluble
7 | MKRKSKAGGASDKSKSPKLKKRRSVVLEPIHISPKYLEDKFKTEFKKGFEKSNGPFPHWQLRNFVDNSDNVVEKIEDELQNFEGWKRKENDLYSLYQSDDLKSINPVENPAVFSFRQFLYKEVKEWLQNVSGVELTEQVDCNGSCYARTDSLLPHNDLIETRRFAFVYYITSADWDSEVNGGDLQLFNHDKKLQPTSVAAQFSPLRNSFMLFEVSEKSWHRVAEMLSEEPRLSINGWFHSTRRIEPKKPAVEAIQRFVPEAACKLSKLISKEYLQKERQDEVQQTFADSSELNLSKFIFEEIHDNAYSELISNPSCFETVGPVSKRHVARLDEEKSADLQNTKRIIQCLKSKNFAKLAAKLTGVTVTGAQTSVKVSRVEHGTYWVLGDEDAEQSSTDGYCLDVHLFVQKTNWDDEAGGDLIYIEEGDTEELLRISPSPNAASIVFREPGVISFMKYANCKSSDPFFLFTVSFYNVQVVED | not soluble
8 | MGSDKIHHHHHHMHTELNHVMPWRIEDIDLTRIDRQKAVANEDLLLLLCASSFIESGSDLYTANLSTFFNGDPEVSAWLNQEWEPEELQHGRALKTYIAYVWPEFDWDTAFRNFMEEYSLTCSVEDFEKTRALEMVARCVVETGTATLYRAIGECSDEPVLKQITDNIRTDEVRHYKHFFKYFKKYNKIEGNGRLAVLGALMRRVMEIKNEDSEIALRHVFAVRYPERVHDSAYNRERAARINALVRRNLSADMCVKMLLKPLDLPARIQPGVHYPLAKITQHVFFR | not soluble
9 | MSLSDDPMASIKLLNLERENSAIAQYQSNIANLKTTLSSQETHLDSVNESLKSMRDIVLWGANGSLTDQDRSGMITELKSYRDSIESSFNAQDEEGHFLFSGTKTDTAALNKSSGAYVVEGNSDVRVVTVAKGVTMDSNMTAQEILDIGGGKNVLNQIDALIAEFEKPSPNFQAEVDASLNAIDDTMANVLGAMTEIGGRHNNLDLMDGAHSENKLFVDKVSGDLSALDYGEASVRLSNYMAALQATQASYVKINDLSLFDREGHHHHHH | soluble
10 | MAHHHHHHMKRENVSFPHAQSNVVSNLDGNTLLNDSLVQQSCSPTESKEDVKTEYDSFVDAPVIPLTEKFDDNYSQPVSTVNPRDDSIKCEMDVLPASSLTSVCNRKVIHGEKVDNDRVKIVRDWLLMPVLSQDSDFEGDGDDFIDTLLHIAEDKMYLYGFYERLGQTELVTTRRINNRKRSRGSNGISHATGNQGAQAPVMATSPPQVLPFSFVNWLPNSGKGRCDPERVHQQTISSDAILCSGEKYTLCRYALSSGKLRKECADPYQFLTAKLQEIRHCMEEELMGDAKNSNEKKTGVTDY | not soluble
11 | EPVVVSAADGEIRTGNDHLCDLLDSDPSDVFGSQIGTFFPGLDDVDLRAHCSQSPGTPLTSSCSAGGTERWVEIAFEPQQWDG | not soluble
12 | MAAMPKPAAFWNDRFANEEYVYGEAPNRFVASAARTWLPEAGEVLLLGAGEGRNAVHLAREGHTVTAVDYAVEGLRKTERLATEAGVEVEAIQADVREWKPARAWDAVVVTFLHLPADERPGLYRLVQRCLRPGGRLVAEWFRPLEHHHHHH | not soluble
13 | MQIRNSHLYSASRLVQNTFNASSTKEAANTIAKNNESAALSATQTARTHEGDSKGKSSNGSRSHLRSMRYAAYLAGSAYLYDKTVNDFFLSTTSLNDGKQGFTSDARLQKAEKKAEANYHAYHNRANFGGVAPTRSSLLPKLCGENLFVTMLDFRAATKVHMKNLIDTKEAHDSIANNISCIMGERVKPELLKKHGIVQTPPDFDITKGASYDCKNKYSLSGVPNQETGSYGYASRSVSNPFIEKGENHHARAINSERALTPRNCVDALQPLLQKSERLSPEAQFRAGQALLILRPLYCSSENWGDAHKVLMPFLEKKGLVSSQENQKLGATRPFTQTDMEKGIARRNTSLAGPTLNKLNIFLQKSIYNKDEKAISDLTAKKLGEMKYIPIAHFKMNEDVSSFEDSSGLADSFTGYNVSAYINHARLLSGEDRLSKKDVIAIVGCLNAIYDNASSERHTLREIAHGCFVGAGYTVEDAEDFYNDACKAAATEFYGGRAINVQSQLYSSSVDKPDS | not soluble
14 | MMSPRIGLTLQKIVETAAEIADANGVQEVTLASLAQTLGVRSPSLYNHVKGLQDVRKNLGIYGIKKLHNRLEEAAEDKRMDEAIHALGEAYVAFVRKHPGLYEATFLRDEEVRKAGDGIVKLCLQVLQQYGLEGENALHATRGFRSICHGFASIEQQGGFGLPLDLDISLHVLLETFIKGLRE | soluble
15 | MPRPGKDSYDEQKPPYSYIWLTYMAIQDSDDKMLPLTEIYKYIMDRFPFYRKNTQRWQNSLRHNLSFNDCFIKIPRRADRPGKGSYWAVHPNASGMFENGSCLRRRKRFRARGGQDDDDDDFHHPAPSKISRKNPLPLLPEPPITPPLLSSLFPNLPPSLPNFCLFPPGMDPTKSLLLNPLSLLLMPHFLKNSSNFESSTPHSETSEISGSGSSSSKTPTPEAGFNSSFSIESILSS | not soluble
16 | MSLRPNHAAQSLRSRTSKTIGCMFSDVANPLYARAFRALEEHFRREGYMLLLANGLNDAEREIDIIQTFQLRGMDGVILAPGNERHPGVLDAVRRLSMPAVIYDRDLAVDADAVLFDHVAGVKAAIHHLVELGHTRIALALWQVKSRPVRRRIEGYKAAFKAAGLPVPDLILQEPTPTSSAFDDVTRLLQLPDPPTAFLAQGTHTLTSTLRAIAKQGLRVPEDVSVIGIGDTDFAQTYDPPLTVLRTPTDEVAAHAVEMLLSRLAAKGDASLSPRKALIQFDLILRESCAPVAREGHHHHHH | soluble
